Data reported in PMC3145977, “Thermostabilisation of an Agonist-Bound Conformation of the Human Adenosine A2A Receptor” (Journal of Molecular Biology, 2011).

B1: GL10: A2AR mutant L48A-Q89A (protein, UniProt P29274 1-412, looked up, variant L48A Q89A)
Adenosine receptor A2a: MPIMGSSVYITVELAIAVLAILGNVLVCWAVWLNSNLQNVTNYFVVSAAAADIAVGVLAIPFAITISTGFCAACHGCLFIACFVLVLTASSIFSLLAIAIDRYIAIRIPLRYNGLVTGTRAKGIIAICWVLSFAIGLTPMLGWNNCGQPKEGKNHSQGCGEGQVACLFEDVVPMNYMVYFNFFACVLVPLLLMLGVYLRIFLAARRQLKQMESQPLPGERARSTLQKEVHAAKSLAIIVGLFALCWLPLHIINCFTFFCPDCSHAPLWLMYLAIVLSHTNSVVNPFIYAYRIREFRQTFRKIIRSHVLRQQEPFKAAGTSARVLAAHGSDGEQVSLRLNGHPPGVWANGSAPHPERRPNGYALGLVSGGSAQESQGNTGLPDVELLSHELKGVCPEPPGLDDPLAQDGAGVS
B2: GL15: A2AR mutant L48A-I238A (protein, UniProt P29274 1-412, looked up, variant L48A I238A)
Adenosine receptor A2a: MPIMGSSVYITVELAIAVLAILGNVLVCWAVWLNSNLQNVTNYFVVSAAAADIAVGVLAIPFAITISTGFCAACHGCLFIACFVLVLTQSSIFSLLAIAIDRYIAIRIPLRYNGLVTGTRAKGIIAICWVLSFAIGLTPMLGWNNCGQPKEGKNHSQGCGEGQVACLFEDVVPMNYMVYFNFFACVLVPLLLMLGVYLRIFLAARRQLKQMESQPLPGERARSTLQKEVHAAKSLAIAVGLFALCWLPLHIINCFTFFCPDCSHAPLWLMYLAIVLSHTNSVVNPFIYAYRIREFRQTFRKIIRSHVLRQQEPFKAAGTSARVLAAHGSDGEQVSLRLNGHPPGVWANGSAPHPERRPNGYALGLVSGGSAQESQGNTGLPDVELLSHELKGVCPEPPGLDDPLAQDGAGVS
B3: GL14: A2AR mutant L48A-A236L (protein, UniProt P29274 1-412, looked up, variant L48A A236L)
Adenosine receptor A2a: MPIMGSSVYITVELAIAVLAILGNVLVCWAVWLNSNLQNVTNYFVVSAAAADIAVGVLAIPFAITISTGFCAACHGCLFIACFVLVLTQSSIFSLLAIAIDRYIAIRIPLRYNGLVTGTRAKGIIAICWVLSFAIGLTPMLGWNNCGQPKEGKNHSQGCGEGQVACLFEDVVPMNYMVYFNFFACVLVPLLLMLGVYLRIFLAARRQLKQMESQPLPGERARSTLQKEVHAAKSLLIIVGLFALCWLPLHIINCFTFFCPDCSHAPLWLMYLAIVLSHTNSVVNPFIYAYRIREFRQTFRKIIRSHVLRQQEPFKAAGTSARVLAAHGSDGEQVSLRLNGHPPGVWANGSAPHPERRPNGYALGLVSGGSAQESQGNTGLPDVELLSHELKGVCPEPPGLDDPLAQDGAGVS
B4: GL20: A2AR mutant L48A-Q89A-V12A (protein, UniProt P29274 1-412, looked up, variant L48A Q89A V12A)
Adenosine receptor A2a: MPIMGSSVYITAELAIAVLAILGNVLVCWAVWLNSNLQNVTNYFVVSAAAADIAVGVLAIPFAITISTGFCAACHGCLFIACFVLVLTASSIFSLLAIAIDRYIAIRIPLRYNGLVTGTRAKGIIAICWVLSFAIGLTPMLGWNNCGQPKEGKNHSQGCGEGQVACLFEDVVPMNYMVYFNFFACVLVPLLLMLGVYLRIFLAARRQLKQMESQPLPGERARSTLQKEVHAAKSLAIIVGLFALCWLPLHIINCFTFFCPDCSHAPLWLMYLAIVLSHTNSVVNPFIYAYRIREFRQTFRKIIRSHVLRQQEPFKAAGTSARVLAAHGSDGEQVSLRLNGHPPGVWANGSAPHPERRPNGYALGLVSGGSAQESQGNTGLPDVELLSHELKGVCPEPPGLDDPLAQDGAGVS
B5: GL7: A2AR mutant L48A-T65A (protein, UniProt P29274 1-412, looked up, variant L48A T65A)
Adenosine receptor A2a: MPIMGSSVYITVELAIAVLAILGNVLVCWAVWLNSNLQNVTNYFVVSAAAADIAVGVLAIPFAIAISTGFCAACHGCLFIACFVLVLTQSSIFSLLAIAIDRYIAIRIPLRYNGLVTGTRAKGIIAICWVLSFAIGLTPMLGWNNCGQPKEGKNHSQGCGEGQVACLFEDVVPMNYMVYFNFFACVLVPLLLMLGVYLRIFLAARRQLKQMESQPLPGERARSTLQKEVHAAKSLAIIVGLFALCWLPLHIINCFTFFCPDCSHAPLWLMYLAIVLSHTNSVVNPFIYAYRIREFRQTFRKIIRSHVLRQQEPFKAAGTSARVLAAHGSDGEQVSLRLNGHPPGVWANGSAPHPERRPNGYALGLVSGGSAQESQGNTGLPDVELLSHELKGVCPEPPGLDDPLAQDGAGVS

system: [^3H]NECA-bound A2AR; experiment: Thermostability assay of detergent-solubilised receptor with [3H]NECA bound (ligand plus format); format: physicochemical, human; conditions: not given
Procedure: […]. After solubilisation in DDM, A2AR was bound to Ni^2+-NTA resin, washed to reduce the DDM concentration and then eluted (see Methods). […]. An aliquot of E. coli cells (14 mL) was thawed on ice and resupended in 500 μL of buffer A [50 mM Tris–HCl (pH 7.4), 0.4 M NaCl, 250 μg/mL lysozyme (Sigma) and 1 mg/mL DNase I (Sigma), supplemented with complete ethylenediaminetetraacetic acid (EDTA)-free Protease inhibitor cocktail (Roche)] and incubated for 1 h at 4 °C. Samples were then sonicated for 1 min at 4 °C using a cup-horn sonicator. The receptors were solubilised by adding 1% DDM and incubated for 1 h at 4 °C. Insoluble material was removed by centrifugation (5 min, 13,000g, 4 °C). The solubilised receptors were partially purified with Ni-NTA agarose (Qiagen). Agarose beads (300 μL) pre-equilibrated in buffer A were added to 700 μL of solubilised receptor. […].
The sample was incubated for 45 min at 4 °C, then 30 min at the specified temperature and then 30 min at 4 °C. Receptor-bound and free radioligands were separated as previously described on mini gel-filtration columns.[26] Receptor-bound ligands were transferred to a 96-well plate (PerkinElmer) and mixed with 200 μL of Optiphase supermix (PerkinElmer). The bound ^3H-labeled ligand was determined using a 1450 Microbeta Trilux counter (1 min per sample).
For all the thermostabilisation studies carried out in our laboratory, the apparent Tm is the temperature for which 50% of the solubilised receptor remains folded after 30 min of incubation. The rate constant of the protein denaturation is a function of the temperature, and consequently, thermal denaturation of a protein can be compared to a chemical reaction for which the rate of the reaction is dependant on the temperature. Arrhenius established that any chemical reaction is temperature dependant. […]. The reference measurement representing the total binding activity of the sample A0 was considered to be measured at 4 °C. From the graphical representation t = Log10(t1/2) (Fig. 2c), we could extract a half-life for each construct at any temperature to define the improvement in stability of the various mutants compared to WT A2AR.

Molecule | Apparent Tm in DDM, Single measurement [°C]
B1 | 47.5
B2 | 42.5
B3 | 40.5
B4 | 46
B5 | 45

same assay, conditions: [3H]NECA bound; DDM; from Fig. 2c

Molecule | Improvement in stability compared to WT based on t1/2 (decrease in rate of unfolding) [fold]
B1 | 136
